Molecular target: Shroom2 ASD2 domain (UniProt Q13796)
Assay: pull-down of Ala mutants
Settings: reference: Scrib-C wild type; sites S1508

UniProt Q13796, sequence (Q13796 whole entry, looked up, the tested form may be a part): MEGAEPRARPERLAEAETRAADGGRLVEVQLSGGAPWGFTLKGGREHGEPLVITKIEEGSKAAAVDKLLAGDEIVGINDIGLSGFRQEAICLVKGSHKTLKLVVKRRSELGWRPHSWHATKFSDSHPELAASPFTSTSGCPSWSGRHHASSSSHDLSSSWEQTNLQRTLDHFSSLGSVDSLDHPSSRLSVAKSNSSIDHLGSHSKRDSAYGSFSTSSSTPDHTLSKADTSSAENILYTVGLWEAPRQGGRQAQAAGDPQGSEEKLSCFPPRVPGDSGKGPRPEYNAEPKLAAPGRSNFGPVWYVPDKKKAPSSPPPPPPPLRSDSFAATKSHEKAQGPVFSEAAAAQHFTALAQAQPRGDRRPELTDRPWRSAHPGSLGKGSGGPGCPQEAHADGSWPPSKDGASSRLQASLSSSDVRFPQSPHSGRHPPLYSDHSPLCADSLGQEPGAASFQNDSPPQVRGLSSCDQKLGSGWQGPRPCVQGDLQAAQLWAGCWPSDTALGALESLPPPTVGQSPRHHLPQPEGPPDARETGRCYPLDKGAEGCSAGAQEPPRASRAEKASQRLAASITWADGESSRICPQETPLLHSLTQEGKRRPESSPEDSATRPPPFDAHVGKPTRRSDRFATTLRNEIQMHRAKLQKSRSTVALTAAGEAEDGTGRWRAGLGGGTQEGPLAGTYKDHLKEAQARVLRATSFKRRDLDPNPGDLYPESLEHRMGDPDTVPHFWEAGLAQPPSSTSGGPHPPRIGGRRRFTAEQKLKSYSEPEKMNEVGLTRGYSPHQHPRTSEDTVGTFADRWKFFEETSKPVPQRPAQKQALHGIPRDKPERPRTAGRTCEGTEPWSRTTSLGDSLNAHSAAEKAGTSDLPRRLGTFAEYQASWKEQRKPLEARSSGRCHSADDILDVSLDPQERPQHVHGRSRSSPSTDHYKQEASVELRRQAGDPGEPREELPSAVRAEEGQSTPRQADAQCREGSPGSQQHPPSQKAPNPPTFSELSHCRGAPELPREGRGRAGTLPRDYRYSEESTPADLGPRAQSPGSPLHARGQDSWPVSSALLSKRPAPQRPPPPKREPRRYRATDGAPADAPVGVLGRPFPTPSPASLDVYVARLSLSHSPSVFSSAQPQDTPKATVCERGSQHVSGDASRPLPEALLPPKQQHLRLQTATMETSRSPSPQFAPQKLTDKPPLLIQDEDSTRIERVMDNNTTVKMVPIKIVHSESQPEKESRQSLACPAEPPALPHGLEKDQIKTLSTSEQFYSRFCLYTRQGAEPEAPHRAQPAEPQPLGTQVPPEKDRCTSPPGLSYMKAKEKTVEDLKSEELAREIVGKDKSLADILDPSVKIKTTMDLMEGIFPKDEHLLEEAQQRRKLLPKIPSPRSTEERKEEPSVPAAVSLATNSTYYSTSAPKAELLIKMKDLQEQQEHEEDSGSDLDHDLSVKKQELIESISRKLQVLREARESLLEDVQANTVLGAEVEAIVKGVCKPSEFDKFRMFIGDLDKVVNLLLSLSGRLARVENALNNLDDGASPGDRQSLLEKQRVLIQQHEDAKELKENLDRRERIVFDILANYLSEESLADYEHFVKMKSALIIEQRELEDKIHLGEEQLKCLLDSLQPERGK

binding against the reference: weaker
Substance: Scrib Scrib-C, 1235-1630 (from UniProt Q14160-1) Scrib-C S1508A
